Test results published in US20100092954A1, “Method for Determining the Genetic Basis for Physiological Changes in Organisms” (priority 2006, published 2010).

System: glycerol kinase (glpK)
Experiment: Biochemical measurements of mutant glycerol kinase (partially purified protein): reaction rate and inhibition by FBP
Set-up: species or system Escherichia coli
Conditions: partially purified protein from cells expressing the enzyme
Source text: All clones had mutations in the gene for glycerol kinase (glpK), which catalyzes the first step in glycerol catabolism. This protein is subject to inhibition by fructose-1,6-bisphosphate (FBP) and phosphorylated enzyme IIA^Glc. […] Since all glycerol-adapted populations have mutations in glpK, rapid growth on glycerol can be partially attributed to altered kinetic and regulatory properties of glycerol kinase. Evidently the rate of glycerol phosphorylation catalyzed by GlpK is rate-limiting to the growth of WT E. coli MG 1655. The glycerol catabolic pathway generates the glycolytic intermediate dihydroxyacetone phosphate, which can be converted to methylglyoxal, a toxic metabolite when present at high concentrations. It is noteworthy that no mutations were detected in any genes relating to methylglyoxal metabolism.

B1: WT: wild-type E. coli MG1655 glycerol kinase (GlpK) (protein, UniProt P0A6F3 2-502, looked up)
Glycerol kinase: TEKKYIVALDQGTTSSRAVVMDHDANIISVSQREFEQIYPKPGWVEHDPMEIWATQSSTLVEVLAKADISSDQIAAIGITNQRETTIVWEKETGKPIYNAIVWQCRRTAEICEHLKRDGLEDYIRSNTGLVIDPYFSGTKVKWILDHVEGSRERARRGELLFGTVDTWLIWKMTQGRVHVTDYTNASRTMLFNIHTLDWDDKMLEVLDIPREMLPEVRRSSEVYGQTNIGGKGGTRIPISGIAGDQQAALFGQLCVKEGMAKNTYGTGCFMLMNTGEKAVKSENGLLTTIACGPTGEVNYALEGAVFMAGASIQWLRDEMKLINDAYDSEYFATKVQNTNGVYVVPAFTGLGAPYWDPYARGAIFGLTRGVNANHIIRATLESIAYQTRDVLEAMQADSGIRLHALRVDGGAVANNFLMQFQSDILGTRVERPEVREVTALGAAYLAGLAVGFWQNLDELQEKAVIEREFRPGIETTERNYRYAGWKKAVKRAMAWEEHDE
  Vmax: 15.8 μmol glycerol/min/mg
